Experiment [1] addresses full-length human KDR on cells (human, UniProt P35968 20-1356). As to the kind of experiment: cell-based or functional assay.
Experiment [2] concerns the target T1, human vascular endothelial growth factor receptor-2 Fc chimera (KDR-Fc) (human, UniProt P35968 20-764).
T1 construct: range 1-764; also called human VEGFR-2; hKDR; not shown: human IgG1 Fc
Kind of experiment: radioactive equilibrium binding (assay not given). The protocol:
(§1) To prepare ³⁵S-labeled binding proteins for analysis, mRNA was prepared as described above for RNA-protein fusion production but the linker ligation step was omitted. The mRNA was expressed using rabbit reticulocyte lysate translation kit (Ambion) in the presence of ³⁵S-labeled Met at 30° C. for 1 hour. Expressed protein was purified on M2-agarose Flag beads (Sigma) as described above. This procedure produced the encoded protein without the nucleic acid tail. In a direct binding assay, VEGF-R2-Fc fusions in concentrations ranging from 0 to 200 nM were added to a constant concentration of the purified protein (0.2 or 0.5 nM) and incubated at 30° C. for 1 hour in buffer B. The receptor-binder complexes were captured using Protein A magnetic beads for another 10 minutes at room temperature using a Kingfisher™ The beads were washed with six reaction volumes of buffer B. The protein was eluted from the beads with 100 μL of 0.1 M KOH. […] of the reaction mixture and elution were dried onto a LumaPlate-96 (Packard) and the amount of ³⁵S on the plate was measured using a TopCount NXT instrument (Packard). The amount of fibronectin-based scaffold protein bound to the target was estimated as a percent of radioactivity eluted from Protein A magnetic beads compare to radioactivity in the reaction mixture. Nonspecific binding of fibronectin-based scaffold proteins to the beads was determined by measuring binding in the absence of KDR-Fc and represented less than 1-2% of the input. Specific binding was obtained through subtraction of nonspecific binding from total binding. Data was analyzed using the GraphPad Prizm software (GraphPad Software, Inc, San Diego, Calif.), fitted using a one site, non-linear binding equation.

The target of experiment [3] is T2, mouse vascular endothelial growth factor receptor-2 Fc chimera (Flk-1-Fc) (mouse, UniProt P35918 20-762).
T2 construct: Purchased from R&D Systems; also called mouse VEGF-R2; not shown: Fc part of the purchased chimera
Kind of experiment: radioactive equilibrium binding (assay not given). The protocol:
as §1
T2 sequence (P35918 20-762, change not shown): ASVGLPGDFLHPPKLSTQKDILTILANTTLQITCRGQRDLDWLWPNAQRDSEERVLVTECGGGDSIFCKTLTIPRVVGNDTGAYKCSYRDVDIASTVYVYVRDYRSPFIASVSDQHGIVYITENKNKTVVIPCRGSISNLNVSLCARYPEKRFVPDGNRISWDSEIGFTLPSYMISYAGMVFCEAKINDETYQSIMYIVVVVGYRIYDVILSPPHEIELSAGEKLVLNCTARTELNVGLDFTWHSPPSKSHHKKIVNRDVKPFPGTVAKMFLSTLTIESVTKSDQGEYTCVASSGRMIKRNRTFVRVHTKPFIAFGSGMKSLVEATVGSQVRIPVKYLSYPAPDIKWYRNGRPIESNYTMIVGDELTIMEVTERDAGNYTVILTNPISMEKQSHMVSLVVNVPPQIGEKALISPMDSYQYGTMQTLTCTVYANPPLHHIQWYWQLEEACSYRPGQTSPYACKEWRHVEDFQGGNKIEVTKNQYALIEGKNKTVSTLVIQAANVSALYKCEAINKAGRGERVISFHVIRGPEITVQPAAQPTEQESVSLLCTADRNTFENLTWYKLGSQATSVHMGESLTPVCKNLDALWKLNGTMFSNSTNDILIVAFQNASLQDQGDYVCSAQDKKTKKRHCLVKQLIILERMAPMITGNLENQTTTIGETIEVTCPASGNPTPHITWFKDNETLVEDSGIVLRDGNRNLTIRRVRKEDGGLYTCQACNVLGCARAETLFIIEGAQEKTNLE

In experiment [4] the target is T1, human vascular endothelial growth …. Kind of experiment: binding to 1 nM KDR-Fc, % of input; radioactive equilibrium binding (assay not given). Here is the method:
as §1

In experiment [5] the target is T2, mouse vascular endothelial growth …. Kind of experiment: binding to 1 nM Flk-1-Fc, % of input; radioactive equilibrium binding (assay not given). The protocol: as §1
The target of experiment [6] is murine VEGFR-2/EpoR chimera (flk-1/EpoR fusion, pmKE2) on cells (mouse; human, UniProt P35918 20-762; P19235 251-508, limits assumed). Kind of experiment: cell-based or functional assay.
Sequence of murine VEGFR-2/EpoR chimera (flk-1/EpoR fusion, pmKE2) on cells (P35918 other isoform, or with tags, fused parts or gaps mutant limits assumed, form in doubt): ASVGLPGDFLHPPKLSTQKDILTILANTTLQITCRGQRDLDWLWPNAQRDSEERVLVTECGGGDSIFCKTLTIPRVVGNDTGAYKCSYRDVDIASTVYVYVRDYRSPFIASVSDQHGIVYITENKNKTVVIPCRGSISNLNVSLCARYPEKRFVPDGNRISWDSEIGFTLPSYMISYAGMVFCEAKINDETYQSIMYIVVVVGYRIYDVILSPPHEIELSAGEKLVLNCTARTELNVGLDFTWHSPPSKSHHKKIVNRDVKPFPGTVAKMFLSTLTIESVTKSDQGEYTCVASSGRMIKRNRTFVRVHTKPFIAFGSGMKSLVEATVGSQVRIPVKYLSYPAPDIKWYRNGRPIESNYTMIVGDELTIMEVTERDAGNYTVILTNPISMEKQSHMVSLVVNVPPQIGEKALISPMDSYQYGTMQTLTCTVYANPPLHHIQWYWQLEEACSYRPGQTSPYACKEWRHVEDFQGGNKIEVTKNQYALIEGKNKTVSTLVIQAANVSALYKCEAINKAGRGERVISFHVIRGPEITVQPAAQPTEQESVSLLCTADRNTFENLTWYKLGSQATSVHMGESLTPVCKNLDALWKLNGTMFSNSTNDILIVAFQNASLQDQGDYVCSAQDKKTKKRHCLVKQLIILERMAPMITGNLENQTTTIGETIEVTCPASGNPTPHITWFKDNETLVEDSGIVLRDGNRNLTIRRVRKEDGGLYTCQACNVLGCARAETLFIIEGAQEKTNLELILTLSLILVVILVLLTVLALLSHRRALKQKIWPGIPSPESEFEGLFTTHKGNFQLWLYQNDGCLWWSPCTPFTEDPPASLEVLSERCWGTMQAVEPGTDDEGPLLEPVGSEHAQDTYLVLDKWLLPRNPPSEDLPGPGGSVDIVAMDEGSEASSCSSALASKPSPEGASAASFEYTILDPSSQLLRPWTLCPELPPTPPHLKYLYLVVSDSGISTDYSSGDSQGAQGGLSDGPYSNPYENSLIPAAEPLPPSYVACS
Experiment [7] concerns the target human KDR/EpoR fusion (phKE8) on Ba/F3 cells (human, UniProt P35968 20-764; P19235 251-508, limits assumed). As to the kind of experiment: cell-based or functional assay.
For experiment [8], the target named is full-length human KDR on cells (human, UniProt P35968 20-1356). Kind of experiment: cell-based or functional assay. This is another data set of the same source.
The target of experiment [9] is T3, human vascular endothelial growth factor receptor-2 Fc chimera (KDR-Fc) (human, UniProt P35968 20-764).
T3 construct: range 1-764; purchased from R&D Systems; also called hKDR; human VEGF-R2-Fc; not shown: human IgG1 Fc
Kind of experiment: BIAcore, target-Fc immobilized. The protocol: (§2) The binding kinetics of fibronectin-based scaffold proteins binding proteins to the target was measured using BIAcore 2000 biosensor (Pharmacia Biosensor). Human and mouse VEGF-R2-Fc fusions were immobilized onto a CM5 sensor chip and soluble binding proteins were injected at concentrations ranging from 0 to 100 nM in buffer 0 (10 mM HEPES, 150 mM NaCl, 0.005% Tween 20, pH 7.4). Sensorgrams were obtained at each concentration and were evaluated using a program, BIA Evaluation 2.0 (BIAcore), to determine the rate constants kₐ (kₒₙ) and kd (koff.) The affinity constant, KD was calculated from the ratio of rate constants […].

For experiment [10], the target named is T4, mouse vascular endothelial growth factor receptor-2 Fc chimera (Flk-1-Fc) (mouse, UniProt P35918 20-762).
T4 construct: purchased from R&D Systems; also called mouse VEGF-R2-Fc; not shown: Fc part of the purchased chimera
Kind of experiment: BIAcore, target-Fc immobilized. Here is the method:
as §2
T4 sequence (P35918 20-762, change not shown): as the sequence (P35918 20-762, change not shown) above

For experiment [11], the target named is T2, mouse vascular endothelial growth …. Kind of experiment: clones from the 159Q(8)L library; binding per FIG. 4. The protocol: as §1
The target in experiment [12] is T3, human vascular endothelial growth …. Kind of experiment: SPR (BIAcore), target immobilized. Here is the method:
(§3) In vitro affinity measurements were made using surface plasmon resonance (SPR) (BIAcore) with both the human and mouse VEGF-receptor target proteins immobilized via amide chemistry on the BIAcore chip.
as §2

The target in experiment [13] is T4, mouse vascular endothelial growth …. Kind of experiment: SPR (BIAcore), target immobilized. The protocol: as §3, §2

B1: E26 (designed binder)
chain: EVVAATPTSLLISWRHPHFPTRYYRITYGETGGNSPVQEFTVPLQPPTATISGLKPGVDYTITGYAVTVERNGRELMTPISINYRT
notes: Del 1-8 10Fn3 clone; Tags not included
As for B1, the “HUVEC proliferation assay: decrease in proliferation” value (“HUVEC proliferation assay: decrease” below) in experiment [1] was approximately 40%. Further, the equilibrium dissociation constant (Kd) was 1.66 nM in experiment [2] and 2.05 nM in experiment [3]. Moreover, the “Binding to 1 nM KDR, %” value in [4] worked out at 27%. Moreover, in experiment [5], the “Binding to 1 nM FLK, %” value was determined as 20%.

B2: E29 (designed binder)
chain: EVVAATPTSLLISWRHPHFPTRYYRITYGETGGNSPVQEFTVPLQPPTATISGLKPGVDYTITGYAVTVERNGRVLMTPISINYRT
notes: as for B1
In the case of B2, in experiment [1], the “HUVEC proliferation assay: decrease” value was approximately 40%. In addition, the Kd in experiment [2] worked out at 1.51 nM; in [3] it was 0.91 nM. For the same molecule, the “Binding to 1 nM KDR, %” value in experiment [4] is 41%. For the same molecule, in experiment [5], the “Binding to 1 nM FLK, %” value amounted to 44%.

B3: E18 (designed binder)
chain: EVVAATPTSLLISWRHPHFPTRYYRITYGETGGNSPVQEFTVPLQPPTATISGLKPGVDYTITGYAVTVERNGRELNTPISINYRT
Regarding B3, the “HUVEC proliferation assay: decrease” value in [1] was approximately 40%.

B4: E19 (designed binder)
chain: EVVAATPTSLLISWRHPHFPTRYYRITYGETGGNSPVQEFTVPLQPPTATISGLKPGVDYTITGYAVTVERNGRHLMTPISINYRT
notes: as for B1
With B4, the “HUVEC proliferation assay: decrease” value in [1] was approximately 40%. The Kd was 1.3 nM in experiment [2] and 0.66 nM in experiment [3]. Moreover, in experiment [4], the “Binding to 1 nM KDR, %” value came out at 38%. In addition, the “Binding to 1 nM FLK, %” value in [5] was 40%.

B5: M5FL (designed binder)
chain: VSDVPRDLEVVAATPTSLLISWRHPHFPTRYYRITYGETGGNSPVQEFTVPLQPPLATISGLKPGVDYTITGYAVTKERNGRELFTPISINYRT
notes: extension and tag left out
B5: in experiment [6], the “Inhibition of VEGF-induced proliferation, Ba/F3-Flk (IC50, nM)” value was 5.1 nM. Besides, the “Inhibition of VEGF-induced proliferation, Ba/F3-KDR (IC50, nM)” value in experiment [7] was 3.9 nM. For the same molecule, in [8], the “Inhibition of VEGF-induced proliferation of HUVEC cells (IC50, nM)” value came out at 8.5 nM. Besides, in [9], binding was put at a Kd of 0.89 nM, the koff was determined as 9.2e-05 s⁻¹ and the kon amounted to 100000 M⁻¹ s⁻¹. Also, in experiment [10], the Kd is 2.1 nM, the off-rate constant (koff) was found to be 0.000582 s⁻¹ and the kon came to 280000 M⁻¹ s⁻¹.

B6: M3 (designed binder)
chain: VSDVPRDLEVVAATPTSLLISWRHPHFPTRYYRITYGETGGNSPVQEFTVPLQPPAATISGLKPGVDYTITGYAVTKERNGRELFTPISINYRT
notes: 10Fn3 clone with WT N-terminus; Tags not included
B6: the binding result in [11] is given as “binds”.

B7: M6 (designed binder)
chain: VSDVPRDLEVVAATPTSLLISWRHPHFPTHYYRITYGETGGNSPVQEFTVPLQPPAATISGLKPGVDYTITGYAVTLERDGRELFTPISINYRT
notes: as for B6
With B7, the binding result in experiment [11] is reported as “binds”.

B8: M2 (designed binder)
chain: VSDVPRDLEVVAATPTSLLISWRHPHFPTRYYRITYGETGGNSPVQEFTVPLQPPAATISGLKPGVDYTITGYAVTWERNGRELFTPISINYRT
notes: as for B6
In the case of B8, in experiment [11], the binding result was “binds”.

B9: M1 (designed binder)
chain: VSDVPRDLEVVAATPTSLLISWRHPHFPTRYYRITYGETGGNSPVQEFTVPLQPTVATISGLKPGVDYTITGYAVTLERNDRELFTPISINYRT
notes: as for B6
For the molecule B9, the binding result in experiment [11] is on record as “binds”.

B10: M7 (designed binder)
chain: VSDVPRDLEVVAATPTSLLISWRHPHFPTRYYRITYGETGGNSPVQEFTVPLQPTTATISGLKPGVDYTITGYAVTWERNGRELFTPISINYRT
notes: as for B6
As to B10, the binding result in experiment [11] was “binds”.

B11: M8 (designed binder)
chain: VSDVPRDLEVVAATPTSLLISWRHPHFPTHYYRITYGETGGNSPVQEFTVPLQPPAATISGLKPGVDYTITGYAVTKERSGRELFTPISINYRT
notes: as for B6
Take B11: the binding result in experiment [11] is recorded as “binds”.

B12: M4 (designed binder)
chain: VSDVPRDLEVVAATPTSLLISWRHPHFPTHYYRITYGETGGNSPVQEFTVPLQPPAATISGLKPGVDYTITGYAVTTERTGRELFTPISINYRT
notes: as for B6
For the molecule B12, in [11], the binding result is “binds”.

B13: M5FL C100 (designed binder)
chain: MGVSDVPRDLEVVAATPTSLLISWRHPHFPTRYYRITYGETGGNSPVQEFTVPLQPPLATISGLKPGVDYTITVYAVTKERNGRELFTPISINYRTEIDKPCQHHHHHH
notes: unmodified M5FL with C-terminal extension, Cys100 and His tag; a significant percentage is produced with the initial methionine removed; also called C100-form of the M5FL protein
For B13, in [12], the affinity, expressed as Kd, was 0.9 nM; the koff turned out to be 6.7e-05 s⁻¹; the on-rate (kon) is 74000 M⁻¹ s⁻¹. In experiment [13], this molecule registered a Kd of 2.1 nM, a koff of 0.0003 s⁻¹ and a kon of 146000 M⁻¹ s⁻¹.

B14: M5FL-PEG20 (designed binder)
chain: MGVSDVPRDLEVVAATPTSLLISWRHPHFPTRYYRITYGETGGNSPVQEFTVPLQPPLATISGLKPGVDYTITVYAVTKERNGRELFTPISINYRTEIDKPCQHHHHHH
modifications: linear 20 kD PEG coupled by maleimide chemistry to the cysteine residue at position 100
notes: also called M5FL 20K PEG
Turning to B14, in [12], the Kd amounted to 5.9 nM, the koff stood at 5.4e-05 s⁻¹ and the kon was 9000 M⁻¹ s⁻¹. In experiment [13], this molecule gave a Kd of 22.8 nM, a koff of 0.00055 s⁻¹ and an association rate constant (kon) of 24000 M⁻¹ s⁻¹.

The values are drawn from patent US20140179896A1 (published 2014).
